The test has as its target T1, CSP Protein (Plasmodium falciparum, UniProt Q7K740 19-374).
T1 construct: also called circumsporozoite protein; complete CSP protein
Nature of the test: SPR, antibody on chip.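 Further: antibodies immobilized on a Carterra chip, directly or via anti-human Fc capture, at two spots each, with CSP flowed over at 4-5 concentrations peaking at 0.5-8 µg/mL.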 For orientation: Surface plasmon resonance follows binding to a sensor surface in real time, without labels.

Numbering of substitutions follows the chain as printed.

Usually Kd stands for a measure of binding affinity in units of concentration.

T1 sequence (Q7K740 19-374 limits assumed): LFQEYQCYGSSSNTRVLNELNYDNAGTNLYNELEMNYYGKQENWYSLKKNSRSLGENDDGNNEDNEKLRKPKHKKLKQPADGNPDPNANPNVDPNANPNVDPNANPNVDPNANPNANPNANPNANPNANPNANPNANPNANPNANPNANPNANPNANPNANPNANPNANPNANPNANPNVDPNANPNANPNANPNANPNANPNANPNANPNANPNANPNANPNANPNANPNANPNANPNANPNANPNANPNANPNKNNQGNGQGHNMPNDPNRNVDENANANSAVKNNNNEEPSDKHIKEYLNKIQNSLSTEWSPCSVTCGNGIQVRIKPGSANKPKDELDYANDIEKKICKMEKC
Method: For SPR, each antibody was either directly coupled to a Carterra Chip or coupled using a goat anti-human Fc antibody. The uncoupled antibodies were washed off and various concentration gradients of the targets were flowed over the antibodies, where the highest concentration of each target was in the range 0.5-8 μg/mL. Each antibody was immobilized in two different locations on the chip to allow for duplicate measurements. The affinity for each antibody-target combination was determined using 4-5 target concentrations in Mathematica software. If variation between the two duplicates was >3-fold, the antibody-target measurement was repeated.

B1: AB-007028 (antibody, V domains shown)
VH: QMQLVESGGGVVQPGRSLRLSCAASGFTFSTYAMHWVRQAPGQGLQWVAVISYHSTNKYYEDSVRGRFTISRDNSKNTLYLQMNSLRAEDTAVYYCARDGYSSSFFDFWGQGTLVTVSS
VL: DIQMTQSPSTLSASVGDRVTITCRASQSISRWLAWYQQQPGKAPKLLMSGASVLESGVPSRFSGSGSGTEFTLTISSLQPDDFATYYCQHYNSYFVTFGQGTKVEIK
For the molecule B1, binding was characterised by a dissociation constant (Kd) of 0.0457 nM.

B2: AB-007043 (antibody, V domains shown)
VH: B1 VH with A23T, A40S
VL: B1 VL with T20A, S56D
B2: the affinity, expressed as Kd, was 0.0426 nM.

B3: AB-007055 (antibody, V domains shown)
VH: B1 VH with A23T, A40S, S102T
VL: B1 VL with T20A
For B3, the Kd came out at 0.374 nM.

B4: AB-007039 (antibody, V domains shown)
VH: B1 VH with A23T, A40S
VL: B1 VL with T20A, F95S
For B4, binding was put at a Kd of 0.106 nM. This Kd lies about 3.5-fold lower than the previous one.

B5: AB-007058 (antibody, V domains shown)
VH: B1 VH with A23T, A40S, S103T
VL: B1 VL with T20A
As for B5, the Kd amounted to 0.149 nM. The Kd values of the last two molecules are within 1.5-fold of each other.

B6: AB-007031 (antibody, V domains shown)
VH: B1 VH with A23T, A40S
VL: B1 VL with T20A, M48I
As to B6, the dissociation constant Kd is 0.0496 nM.

B7: AB-007035 (antibody, V domains shown)
VH: B1 VH with A23T, T31S, A40S
VL: B1 VL with T20A
On to B7, for which the Kd is 0.0513 nM.

B8: AB-007037 (antibody, V domains shown)
VH: B1 VH with A23T, A40S, R65K
VL: B1 VL with T20A
B8 showed a Kd of 0.0346 nM. The Kd values of the last two molecules are within 1.5-fold of each other.

B9: AB-007040 (antibody, V domains shown)
VH: B1 VH with A23T, A40S
VL: B1 VL with T20A, F95Y
Take B9: binding was put at a Kd of 0.0447 nM. This Kd and that of the molecule before are within 1.5-fold of each other.

B10: AB-007064 (antibody, V domains shown)
VH: B1 VH with A23T, A40S
VL: B1 VL with T20A, S49T
Molecule B10 displayed a Kd of 0.556 nM.

B11: AB-007052 (antibody, V domains shown)
VH: B1 VH with A23T, A40S, T56N
VL: B1 VL with T20A
For B11, the equilibrium dissociation constant (Kd) worked out at 0.0261 nM.

B12: AB-007046 (antibody, V domains shown)
VH: B1 VH with A23T, A40S
VL: B1 VL with T20A, N92Y
Take B12: binding was characterised by a dissociation constant (Kd) of 0.0364 nM.

B13: AB-007047 (antibody, V domains shown)
VH: B1 VH with A23T, T31N, A40S
VL: B1 VL with T20A
Consider B13, for which the Kd amounted to 0.175 nM.

B14: AB-007042 (antibody, V domains shown)
VH: B1 VH with A23T, A40S
VL: B1 VL with T20A, S28D
In turn, B14 returned a Kd of 0.034 nM.

B15: AB-007032 (antibody, V domains shown)
VH: B1 VH with M2V
VL: B1 VL with M48I
B15 had a Kd of 0.0469 nM. The Kd values of the last two molecules are within 1.5-fold of each other.

B16: AB-007062 (antibody, V domains shown)
VH: B1 VH with A23T, A40S
VL: B1 VL with T20A, R31S
As to B16, the Kd came to 0.0849 nM.

B17: AB-007033 (antibody, V domains shown)
VH: B1 VH with Q46E, E61A
VL: B1 VL
With B17, the affinity, expressed as Kd, was 0.0408 nM.

B18: AB-007048 (antibody, V domains shown)
VH: B1 VH with A23T, A33S, A40S
VL: B1 VL with T20A
As for B18, the Kd is 0.437 nM.

B19: AB-007069 (antibody, V domains shown)
VH: B1 VH with A23T, A40S
VL: B1 VL with T20A, G50V
With B19, the Kd amounted to 0.174 nM.

B20: AB-007071 (antibody, V domains shown)
VH: B1 VH with A23T, A40S
VL: B1 VL with T20A, V53S
B20 came in with a dissociation constant Kd of 0.0683 nM.

B21: AB-007072 (antibody, V domains shown)
VH: B1 VH with A23T, A40S
VL: B1 VL with T20A, V53N
B21 gave a Kd of 0.194 nM. Compared with the last molecule, the Kd is about 2.8-fold higher.

B22: AB-007067 (antibody, V domains shown)
VH: B1 VH with A23T, A40S
VL: B1 VL with T20A, G50S
B22: the equilibrium dissociation constant (Kd) was 0.0877 nM.

B23: AB-007060 (antibody, V domains shown)
VH: B1 VH with A23T, A40S, F105Y
VL: B1 VL with T20A
Molecule B23 registered a dissociation constant (Kd) of 0.199 nM. This Kd is about 2.3-fold higher than that of the molecule before.

B24: AB-007053 (antibody, V domains shown)
VH: B1 VH with A23T, A40S, N57Q
VL: B1 VL with T20A
On to B24, for which the equilibrium dissociation constant (Kd) was determined as 0.298 nM.

B25: AB-007066 (antibody, V domains shown)
VH: B1 VH with A23T, A40S
VL: B1 VL with T20A, G50Q
B25 gave a dissociation constant (Kd) of 0.376 nM.

B26: AB-007051 (antibody, V domains shown)
VH: B1 VH with A23T, A40S, T56R
VL: B1 VL with T20A
In turn, B26 had a Kd of 0.0414 nM.

B27: AB-007063 (antibody, V domains shown)
VH: B1 VH with A23T, A40S
VL: B1 VL with T20A, S49A
For the molecule B27, the affinity, expressed as Kd, was 0.0524 nM.

B28: AB-007038 (antibody, V domains shown)
VH: B1 VH with A23T, A40S, F108Y
VL: B1 VL with T20A
B28 registered a Kd of 0.029 nM.

B29: AB-007054 (antibody, V domains shown)
VH: B1 VH with A23T, A40S, S102A
VL: B1 VL with T20A
Take B29: binding was put at a Kd of 0.17 nM.

B30: AB-007057 (antibody, V domains shown)
VH: B1 VH with A23T, A40S, S102H
VL: B1 VL with T20A
The molecule B30 yielded a Kd of 0.153 nM. This Kd and that of the molecule before are within 1.5-fold of each other.

B31: AB-007045 (antibody, V domains shown)
VH: B1 VH with A23T, A40S, G100A
VL: B1 VL with T20A
The molecule B31 returned an equilibrium dissociation constant (Kd) of 0.284 nM.

B32: AB-007065 (antibody, V domains shown)
VH: B1 VH with A23T, A40S
VL: B1 VL with T20A, G50K
On to B32, for which the Kd worked out at 0.454 nM.

B33: AB-007030 (antibody, V domains shown)
VH: B1 VH with A23T, A40S, Q46E, E61A
VL: B1 VL with T20A
Take B33: the dissociation constant Kd was 0.132 nM.

B34: AB-007059 (antibody, V domains shown)
VH: B1 VH with A23T, A40S, S104T
VL: B1 VL with T20A
B34: the Kd came out at 1.08 nM.

B35: AB-007036 (antibody, V domains shown)
VH: B1 VH with A23T, A40S, H54D
VL: B1 VL with T20A
Consider B35, for which the dissociation constant (Kd) came to 0.0967 nM.

B36: AB-007073 (antibody, V domains shown)
VH: B1 VH with A23T, A40S
VL: B1 VL with T20A, Y94H
The molecule B36 had a dissociation constant Kd of 0.0816 nM.

B37: AB-007049 (antibody, V domains shown)
VH: B1 VH with A23T, A40S, Y53N, S55E
VL: B1 VL with T20A
For B37, the Kd was 0.152 nM.

B38: AB-007041 (antibody, V domains shown)
VH: B1 VH with A23T, T31D, A40S
VL: B1 VL with T20A
As for B38, the Kd came to 0.0439 nM.

B39: AB-007056 (antibody, V domains shown)
VH: B1 VH with A23T, A40S, S102Q
VL: B1 VL with T20A
For the molecule B39, the dissociation constant (Kd) came out at 0.042 nM.

B40: AB-007070 (antibody, V domains shown)
VH: B1 VH with A23T, A40S
VL: B1 VL with T20A, G50A
Consider B40, for which the affinity, expressed as Kd, was 0.177 nM.

B41: AB-007074 (antibody, V domains shown)
VH: B1 VH
VL: B1 VL with F95Y
In turn, B41 had a dissociation constant Kd of 0.0415 nM.

B42: AB-007050 (antibody, V domains shown)
VH: B1 VH with A23T, A40S, Y53Q
VL: B1 VL with T20A
Take B42: the dissociation constant (Kd) was 0.147 nM.

B43: AB-007034 (antibody, V domains shown)
VH: B1 VH with M2V, Q46E, E61A
VL: B1 VL with M48I
B43 displayed an equilibrium dissociation constant (Kd) of 0.0824 nM.

B44: AB-007061 (antibody, V domains shown)
VH: B1 VH with A23T, A40S
VL: B1 VL with T20A, S30D
With B44, the Kd is 0.0504 nM.

B45: AB-007068 (antibody, V domains shown)
VH: B1 VH with A23T, A40S
VL: B1 VL with T20A, G50L
With B45, the Kd turned out to be 0.152 nM.

B46: AB-007044 (antibody, V domains shown)
VH: B1 VH with A23T, A40S, D62E
VL: B1 VL with T20A
As for B46, the affinity, expressed as Kd, was 0.0319 nM.
